Experiment in all cases: EMSA
Series [1] addresses Pax5(1-149) Q22A;Ets-1(331-440) (human;murine, UniProt Q02548;P27577 1-149;331-440, Q22A|).
Series [2] concerns the target Pax5(1-149) Q22A;Ets-1(280-440) (human;murine, UniProt Q02548;P27577 1-149;280-440, Q22A|).
The target in series [3] is Pax5(1-149) WT;GABPα(311-430);GABPβ1(1-157) (human;;, UniProt Q02548;Q00422;Q00420 1-149;311-430;1-157, ||).
Series [4] concerns the target GABPα(311-430);GABPβ1(1-157) (;, UniProt Q00422;Q00420 311-430;1-157, |).
The next series concerns the target Pax5(1-149) Q22A (human, UniProt Q02548 1-149, Q22A).
The target of a further series is Pax5(1-149) WT (human, UniProt Q02548 1-149).
A further series deals with T1, Ets-1(280-440) (murine, UniProt P27577 280-440).
T1 sequence: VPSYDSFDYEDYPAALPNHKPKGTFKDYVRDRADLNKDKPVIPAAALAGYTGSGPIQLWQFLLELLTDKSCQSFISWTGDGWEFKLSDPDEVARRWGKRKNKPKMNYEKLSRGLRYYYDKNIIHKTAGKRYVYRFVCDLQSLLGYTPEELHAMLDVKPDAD

The next series has as its target T2, Ets-1(331-440) (murine, UniProt P27577 331-440).
T2 sequence: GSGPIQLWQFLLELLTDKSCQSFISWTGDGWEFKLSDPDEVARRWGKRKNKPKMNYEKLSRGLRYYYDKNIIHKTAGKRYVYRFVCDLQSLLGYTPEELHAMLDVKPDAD

For series [5], the target named is Pax5(1-149) Q22A;GABPα(311-430) (human;, UniProt Q02548;Q00422 1-149;311-430, Q22A|).
Series [6] concerns the target Pax5(1-149) WT;Ets-1(331-440) (human;murine, UniProt Q02548;P27577 1-149;331-440, |).
For series [7], the target named is Pax5(1-149) WT;Ets-1(280-440) (human;murine, UniProt Q02548;P27577 1-149;280-440, |).
Series [8] deals with Pax5(1-149) WT;GABPα(311-430) (human;, UniProt Q02548;Q00422 1-149;311-430, |).
For series [9], the target named is Pax5(1-149) Q22A;GABPα(311-430);GABPβ1(1-157) (human;;, UniProt Q02548;Q00422;Q00420 1-149;311-430;1-157, Q22A||).
Pax5(1-149) Q22A;GABPα(311-430);GABPβ1(1-157), sequence (Q02548 1-149 Q22A, chain 1 of 3): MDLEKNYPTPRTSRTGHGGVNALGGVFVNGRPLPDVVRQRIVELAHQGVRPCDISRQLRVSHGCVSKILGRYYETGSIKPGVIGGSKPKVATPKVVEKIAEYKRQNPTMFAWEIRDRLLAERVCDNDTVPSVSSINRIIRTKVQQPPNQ
Pax5(1-149) Q22A;GABPα(311-430);GABPβ1(1-157), sequence (Q00422 311-430, chain 2 of 3): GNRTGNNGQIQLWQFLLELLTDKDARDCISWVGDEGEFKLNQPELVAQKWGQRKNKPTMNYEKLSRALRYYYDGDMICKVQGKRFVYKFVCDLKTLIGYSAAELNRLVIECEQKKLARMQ
Pax5(1-149) Q22A;GABPα(311-430);GABPβ1(1-157), sequence (Q00420 1-157, chain 3 of 3): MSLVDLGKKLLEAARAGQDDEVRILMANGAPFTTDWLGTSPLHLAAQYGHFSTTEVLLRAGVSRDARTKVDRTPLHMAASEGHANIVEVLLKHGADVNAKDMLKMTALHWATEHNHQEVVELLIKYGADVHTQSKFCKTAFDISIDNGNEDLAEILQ

GABPα(311-430);GABPβ1(1-157), sequence (Q00422 311-430, chain 1 of 2): as the sequence (Q00422 311-430, chain 2 of 3) above
GABPα(311-430);GABPβ1(1-157), sequence (Q00420 1-157, chain 2 of 2): as the sequence (Q00420 1-157, chain 3 of 3) above
Pax5(1-149) Q22A;Ets-1(280-440), sequence (Q02548 1-149 Q22A, chain 1 of 2, one chain of several): as the sequence (Q02548 1-149 Q22A, chain 1 of 3) above
Pax5(1-149) Q22A, sequence (Q02548 1-149 Q22A): as the sequence (Q02548 1-149 Q22A, chain 1 of 3) above
Pax5(1-149) Q22A;GABPα(311-430), sequence (Q02548 1-149 Q22A, chain 1 of 2): as the sequence (Q02548 1-149 Q22A, chain 1 of 3) above
Pax5(1-149) Q22A;GABPα(311-430), sequence (Q00422 311-430, chain 2 of 2): as the sequence (Q00422 311-430, chain 2 of 3) above
Pax5(1-149) Q22A;Ets-1(331-440), sequence (Q02548 1-149 Q22A, one chain of several): as the sequence (Q02548 1-149 Q22A, chain 1 of 3) above
Pax5(1-149) WT, sequence (Q02548 1-149): as the sequence (Q02548 1-149 Q22A, chain 1 of 3) above, with A22Q counted along it
Pax5(1-149) WT;Ets-1(280-440), sequence (Q02548 1-149, chain 1 of 2, one chain of several): as the sequence (Q02548 1-149 Q22A, chain 1 of 3) above, with A22Q counted along it
Pax5(1-149) WT;GABPα(311-430);GABPβ1(1-157), sequence (Q02548 1-149, chain 1 of 3): as the sequence (Q02548 1-149 Q22A, chain 1 of 3) above, with A22Q counted along it
Pax5(1-149) WT;GABPα(311-430);GABPβ1(1-157), sequence (Q00422 311-430, chain 2 of 3): as the sequence (Q00422 311-430, chain 2 of 3) above
Pax5(1-149) WT;GABPα(311-430);GABPβ1(1-157), sequence (Q00420 1-157, chain 3 of 3): as the sequence (Q00420 1-157, chain 3 of 3) above
Pax5(1-149) WT;GABPα(311-430), sequence (Q02548 1-149, chain 1 of 2): as the sequence (Q02548 1-149 Q22A, chain 1 of 3) above, with A22Q counted along it
Pax5(1-149) WT;GABPα(311-430), sequence (Q00422 311-430, chain 2 of 2): as the sequence (Q00422 311-430, chain 2 of 3) above
Pax5(1-149) WT;Ets-1(331-440), sequence (Q02548 1-149, chain 1 of 2, one chain of several): as the sequence (Q02548 1-149 Q22A, chain 1 of 3) above, with A22Q counted along it

B1: P5-EBS probe (dsDNA)
DNA 1: TCGAAGGGCCACTGGAGCCCATCTCCGGCACGGC
DNA 2: TCGAGCCGTGCCGGAGATGGGCTCCAGTGGCCCT
For B1, the Kd turned out to be 7.89 ± 0.76 nM in [1]; 162 ± 44.3 nM in [2]; 4.08 ± 0.38 nM in series [3]; 234 ± 24.8 nM in series [4]; 1.72 ± 0.37 nM with Pax5(1-149) Q22A; 2.4 ± 0.47 nM with Pax5(1-149) WT. Also, the Kd with Ets-1(331-440) was 136 ± 5.29 nM; in series [5], 6.14 ± 5.38 nM; in series [6], 0.89 ± 0.14 nM; in series [7], 0.49 ± 0.05 nM; in series [8], 17.8 ± 0.74 nM; in series [9] it was 3.36 ± 0.14 nM. Moreover, the binding result in the series with Ets-1(280-440) is “no binding”.

Source of the values: PMC2763353.
